Measurements: US20110301098A1, “TREATMENT FOR INTIMAL HYPERPLASIA AND RELATED CONDITIONS” (priority 2006, published 2011)
Where two headings read alike, the source gives them in different places. Positions of bridges follow the written chain, without caps; N, C: chain ends. Non-standard residues stand in square brackets, D forms with d. Residues, ends and D or L forms follow the SMILES beside them. *: point of attachment. Hydrocinnamoyl = O=C(CCc1ccccc1)*; dCha = N[C@H](CC1CCCCC1)C(=O)O; Orn = NCCC[C@H](N)C(=O)O

Columns and labels:
C5a receptor [1] = molecular target: T1, C5a receptor (Mus musculus, UniProt P30993); assay: C5a receptor antagonist treatment in the ApoE-/- mouse vein graft model
T1 sequence (P30993 1-351): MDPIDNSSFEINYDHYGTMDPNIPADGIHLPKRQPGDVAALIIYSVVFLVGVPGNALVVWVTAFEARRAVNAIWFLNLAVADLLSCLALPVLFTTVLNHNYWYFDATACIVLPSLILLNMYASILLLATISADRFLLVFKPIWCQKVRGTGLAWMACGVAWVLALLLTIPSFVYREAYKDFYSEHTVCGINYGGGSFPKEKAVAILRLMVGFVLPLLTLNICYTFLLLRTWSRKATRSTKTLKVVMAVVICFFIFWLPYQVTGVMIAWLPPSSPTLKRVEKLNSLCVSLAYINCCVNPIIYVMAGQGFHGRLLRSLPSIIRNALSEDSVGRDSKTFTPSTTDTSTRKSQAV
Procedure: (§1) Male ApoE^−/− mice, aged between 12 and 16 weeks, were used for all experiments. Mice were fed a standard chow diet, and received water and food ad libitum. Before surgery, mice were anesthetized by an intra-peritoneal injection with Midazolam (5 mg/kg, Roche), Medetomidine (0.5 mg/kg, Orion) and Fentanyl (0.05 mg/kg, Janssen). Cholesterol levels in serum were determined at the time of sacrifice.
(§2) Briefly, caval veins were harvested from genetically identical donor mice, and were preserved before implantation at 4° C. in 0.9% NaCl containing 100 U/ml of heparin. In the graft recipient, the right carotid artery was dissected and cut in the middle. A polyethylene cuff was placed at both ends of the artery. The artery was everted around the cuff and ligated with a silk 8.0 suture. The caval vein was sleeved over the two cuffs and ligated. Successful engraftment was confirmed by the presence of pulsations and turbulent blood flow within the vein graft. The whole procedure usually takes about 30 minutes.
(§3) Cross-sections of vein grafts were stained with hematoxylin-phloxine-saffron, using conventional methods. The intimal hyperplasia surface of the thickened vein grafts was measured using image analysis software (Qwin, Leica). For each vein graft, six equally spaced cross-sections were used to determine the degree of vessel wall thickening.
(§4) To identify macrophages and macrophage-derived foam cells, immunohistochemistry was performed using AIA31240 primary antibodies against mouse macrophages (1:3000, Accurate Chemical). The contribution of macrophages and foam cells to the intimal hyperplasia was measured by computer-assisted analysis (Qwin, Leica) as the area stained with antibody AIA31240, and expressed as a percentage of the total intimal hyperplasia surface.
(§5) In order to inhibit C5a function, 21 mice were randomly divided in to three groups, and were treated with the cyclic peptide C5a antagonists AcF-[OP-(D-Cha)WR] (AcF) or hydrocinnamate-[OP-(D-Cha)WR] (HC). […]

PDGF receptor = details: pretreatment of the vein grafts; cited from earlier work
C5a receptor [2] = molecular target: T1, C5a receptor; details: in vivo
Procedure: as §1, §2, §3, §4, §5

vein grafts = assay: Recombinant C5a applied to vein grafts in hypercholesterolaemic ApoE-/- mice; type: in vivo, mouse; details: for intimal hyperplasia surface: control 0.24±0.02; for macrophage/foam cell content of intimal hyperplasia: control 17±2%
Procedure: 153: 1301-1310. […] The whole procedure usually takes about 30 minutes.
To examine the involvement of C5a in the development of vein graft thickening, we applied recombinant C5a in two concentrations (0.5 μg and 5 μg, dissolved in 100 μl 20% Pluronic gel, n=7 per group,) directly to the vein graft at the time of surgery. In the control group 100 μl of 20% Pluronic gel without C5a was applied.
Twenty-one mice were randomly divided into three groups. In the treatment groups, either 0.5 μg or 5 μg of E. coli-derived recombinant mouse C5a (HyCult Biotechnology) was dissolved in 0.1 ml of 20% Pluronic gel, and applied around the venous interposition at the time of surgery. In the control group 0.1 ml of 20% Pluronic gel was applied without C5a. Mice were sacrificed after 28 days.

With `CC(=O)N[C@@H](Cc1ccccc1)C(=O)N[C@H]1CCCNC(=O)[C@H](CCCNC(=N)N)NC(=O)[C@H](Cc2c[nH]c3ccccc23)NC(=O)[C@@H](CC2CCCCC2)NC(=O)[C@@H]2CCCN2C1=O` [AcF, AcF-[OP-(D-Cha)WR]] the “decrease in vein graft thickening compared to control mice” value (C5a receptor [1]; 3 mg/kg/day s.c., 28 days after surgery) was 53% and the “body weight or serum cholesterol” value (C5a receptor [1]; between the different treatment groups) was “No differences”.

In the case of `Cc1ccc(C(=O)Nc2ccc(S(=O)(=O)O)c3cc(S(=O)(=O)O)cc(S(=O)(=O)O)c23)cc1NC(=O)c1cccc(NC(=O)Nc2cccc(C(=O)Nc3cc(C(=O)Nc4ccc(S(=O)(=O)O)c5cc(S(=O)(=O)O)cc(S(=O)(=O)O)c45)ccc3C)c2)c1` [Suramin], the neointimal hyperplasia (PDGF receptor) is listed as “significant reduction”.

With `N=C(N)NCCC[C@@H]1NC(=O)[C@H](Cc2c[nH]c3ccccc23)NC(=O)[C@@H](CC2CCCCC2)NC(=O)[C@@H]2CCCN2C(=O)[C@@H](NC(=O)CCc2ccccc2)CCCNC1=O` [HC, hydrocinnamate-[OP-(D-Cha)WR]] (Hydrocinnamoyl-[Orn]P[dCha]WR; lactam 1-C) the “body weight or serum cholesterol” value (C5a receptor [2]) was “No differences”.

B1: C5a: E. coli-derived recombinant mouse C5a (HyCult Biotechnology) (protein, UniProt P06684 679-755, looked up)
C5a anaphylatoxin: NLHLLRQKIEEQAAKYKHSVPKKCCYDGARVNFYETCEERVARVTIGPLCIRAFNECCTIANKIRKESPHKPVQLGR
modifications: C5a anaphylatoxin
With B1 the intimal hyperplasia surface (vein grafts; 0.5 μg C5a in 20% Pluronic gel applied to vein graft at surgery, 28 days) was 0.29±0.03 mm^2, the “macrophage/foam cell content of intimal hyperplasia” value (vein grafts; 0.5 μg C5a, 28 days) was 22±3% and the “body weight and serum cholesterol” value (vein grafts; 0.5 μg and 5 μg C5a vs control) was “did not differ”. For the same molecule, the luminal area (vein grafts; 0.5 μg and 5 μg C5a vs control, 28 days) was “No significant differences”, the intimal hyperplasia surface (vein grafts; 5 μg C5a in 20% Pluronic gel applied to vein graft at surgery, 28 days) was 0.41±0.04 mm^2 and the “macrophage/foam cell content of intimal hyperplasia” value (vein grafts; 5 μg C5a, 28 days) was 33±2%.
